# Source: the DeepSol protein solubility set
# Assay: soluble on expression in E. coli; label from the status in PepcDB or PDB records
row,Sequence,soluble on expression in E. coli
1,MLTLLNRWRSQPGGASNAAAFIRVLESPKSAVTDKVLVLKAFNDWDVLVNTWFEVADALPAVEQLLDNNTFPEHSSAALLVSKVYFCLEQYERALEFALRGDFNVVPATRTGLGNDAEYVNKIIETAIDTYKTLSKQGSGIPQKLRDLIDRIVARNLDKREIWFVISLGFETTNLAMIDRAISAMPADLTIKNQTTLVETLNRVVNGAFDRSFRFQVIDTVIKTYLKCPSPDMSKICECYVLTDNAEAAADTITSLIAKSLSTRAYQIAFDLYETASQGFLDRVLKRFQQQDARDEKSMEKIHSILKGHETVKAYLDFFVRHNHTDSVLMEEIKENIRTASAHNALLISNGLMQYGTTCDDFLRNNLNWVSKATNWNKFNAVASLGLIHHGQESSAMKVLEPYLPKESVEGFGFKEGGAMLAYGLIHAKHGDATAMSTLAQWLKTAENEPVRHGACLGFGVAGLGSSSVSNYEKVREVLQRDEAVSGESAGIAMGLIMAGHLNQEVFNELKQYTVDTQHDKTQRGIRTGLACAAFGLQGDAEPYIKEAIGAKSNPMLRSTGICMLSMAYAGTGSPDVVRRLLEKVATDPNLDVKRYATIGIGFVLSKDPSTCLSYVAMLTEHFNGHVRYGAAMALGIACAGTGNMEAIALIEPMISDKEGFVRKGALLSLALIMCQQTDYTCPKVNGFRKQLLKKIGEKNEDSLVKFGAIIAQGLLDIGGQNAAVTMQNSDKQPDMGSMVGMMCFLHGWFWHSMHFFIALAAKPSCLVMMNENLKIPVLDYICHANSQKFAYPPRAESKKDKDVKKIETVVLSITGKKNASKKLIAEEKKRREAAASASSAAAAPSSSSTSGTAPAAEDEKMEVDQPGKSKKEKAPEKDTKPLHRLQNPARVIPAQRQLISISDARAYSPMKPLYKGGIIVADRVDKEREEKLVSEVVTQVNTPASSGNTENKPHSTFEININDF,not soluble
2,MSLFPAELMVVRKAQDGTIRPLMIAPDHVDIAEKVIEIYRSSAGRTRKEISKDIVTIEYGIKNPKIVRGLALIMDRMSTFRNRSRVDSKQLRGFLFQMGPAVSPEERQEKIALAAEHFSVSPQDIEEAIYGDMDSENVLDQCPSITPEHLNRRYNLEQLTTLMYRSKFIEVSGINNWYRFISLIKRQGLVFEAQGNPLMSVRIDGPNSVFNNMERYGSSMARVVERLTAFPGWKLHAEVEIKDRVYSVDLDSSISYYLPETDIEEEEAIPDPVVIGTRVFFPTRIINVHGQDVYVDIVYHMSPEAIKRRDEMIRSSGIKWITAVVGECKKFQGVLCFRNRVDWDAIIAKASEEYPATTDALREEIDRLYPNTEAILDLLDSRSIPLSHLEKIGYRIKWNGILPEIVRSTEGHHHHHH,soluble
3,GSGKSLLLKVILLGDGGVGKSSLMNRYVTNKFDSQAFHTIGVEFLNRDLEVDGRFVTLQIWDTAGQERFKSLRTPFYRGADCCLLTFSVDDRQSFENLGNWQKEFIYYADVKDPEHFPFVVLGNKVDKEDRQVTTEEAQTWCMENGDYPYLETSAKDDTNVTVAFEEAVRQVLAVEEQLE,soluble
4,MYHLKKQRIMGAVKRNTLSVLFIIKKAKLLKNGEAPVCMRITVNKRVAEVMIKRSIPVDLWNQKKECSKGKDRVAIELNHYINTVRAKVLQIHRELEIDNKPITADIIKDCFYGRDKVQRSLQEVYKEHNEKCRALIGKEYTESTVIKFDTSINRLKEYIRSCYHRDDIMLAELDGQFIRDFDFWLKTEKHCQNNSALKHLKNLKKVVRIALANDWIKKDPFYGIHFKQEEVNVEFLSREELDILMNKEFAIKRLEQVRDIFVFCCFTALAFVDVQQLSREHLIKDNSGALWIRKARQKTNQMCNIPVLSIPQRILRKYEDNAECIKKGVLLPVISNQRMNAYLKEIADLCGITKRLTTHVARHTAATIVFLANDVSMENVSKILGHSNIRMTQHYAKVLDSSIMRDMVNVEKNFK,not soluble
5,MGLSGFHSFLCCRSRDYHLVINTLIHTVMTMDITKSVAFTGHRSERILQVRMLYLYLDIVSQVKRLYSLGYRYFLSGMAEGFDLLAAQAVTALKAEYTDIRLIAVVPFSRQSNRYRPENKSLYDRIMKTADETVILREDYRKGCFHHRNDYLIDNSEIVLAYWDKQPYGGTYYTVGKARMVNRIIINLYK,not soluble
6,MGSDKIHHHHHHMAEQPLIGKTILTTRAAGQSSPFAAQLRAAGAAVIEMPTLEIGPPSSWLPLDEAIAAIADFDWLILASANAVEAVQQRLAAQQKSWSDVPCAIAVVGQKTAQVLAAQGGKADYIPPEFIAESLVEHFPQPVAGQRLLFPRVETGGREQITQALQSQGAIVVEVPAYESRCPSQIPDDALIALRQAHLNLISFTSSKTVRNFCQLMASNLGVDWSARISGVAIASIGPQTSITCQELLGRVEVEAQEYTLDGLLLAIEQWARQTT,not soluble
7,MGSDKIHHHHHHMKIYCSKDSLITGVNTVQKAVSNKNTLPVLQGIMIRAEGQSLIFEATDLEIGIRCVVPAQVEKEGVVVLPSRLFSDLVCKLPDVLIELELQNDVINIHYNESDLSLRGYDPEEFPLLPDLFDAETFNLPVSIFKTMIKQTIFACSAEESRPVFTGCLLQIEDGSLRLIATDTHRLAYRIAEISNPEQIKFQGIIPAKTLGEIYRLLRDEDENLFIRFNQAQIVFQFGAVHLLSRLIEGQFPNYKQVIPQSCQTKVLLSARLFQDSVERASLLARDGSHTSIIKLSVDTERLSIDQTSELGKISEQMEVKKEGNDVKIAFNSKFLLDVLKIIDSEEIVFELSGSYSPGIIRPVDDPNYLYLALPVRTS,not soluble
8,MEAAASEPSLDLDNLKLLELIGRGRYGAVYKGSLDERPVAVKVFSFANRQNFINEKNIYRVPLMEHDNIARFIVGDERVTADGRMEYLLVMEYYPNGSLCKYLSLHTSDWVSSCRLAHSVTRGLAYLHTELPRGDHYKPAISHRDLNSRNVLVKNDGTCVISDFGLSMRLTGNRLVRPGEEDNAAISEVGTIRYMAPEVLEGAVNLRDCESALKQVDMYALGLIYWEIFMRCTDLFPGESVPEYQMAFQTEVGNHPTFEDMQVLVSREKQRPKFPEAWKENSLAVRSLKETIEDCWDQDAEARLTAQCAEERMAELMMIWERNKSVSPTAHHHHHH,soluble
9,MGSDKIHHHHHHMRKSRDANPFKAMPNILYPDELMDKAYNRSEKIAGELRTTTRGLSTPKSKIIEDNKIRTTASVISDNLLKIVEKTPSIDNLDPFYREILEIMVGSDEFKKSLAAVQWASEIVKKLGTQYSRKVKKAPSPQATSIVRKEFIGRVSSVLKQIYPNMAFLGVARNKLKNIPTVKNLPSVVIAGYPNVGKSTLLRTLTDAEPEVNSYPFTTKGLNIGYTEEGIQIIDTPGVLDRPIYERNDIELHAVVAINYLSDMILFVIDPTEFCGFTMEEQFNLLQEIRKTFNVPILVALTKMDVDEIEGLDKLEEDLGEYEVLKVSSFKKEGIADLRERLLDILDEQGLMGLLEE,not soluble
10,MTDKWLDTINWSADGLIPAIAQDKNNGKILMVAWMNREALKRTVESGEAVYWSRSRKKLWHKGEESGHTQKISAIHLDCDEDILLLSVEQKGGIACHTGRQSCFFRQLKNGEWVVTEPVIKDPSQIYTK,not soluble
11,MGSDKIHHHHHHMEKKPLYHFMPGTMTWSFGTPGCNFKCANRQNWAISQMGQDKSIPLATPEAIVRNAMNTGCSSISCTYTEPTIFAEYALDVMQLARQTGLRNIWISNGYLSPLCLKTVTPWLDAINVGLQSMDDAFYRRVCGARLDPVLDSLRLIQESGMHLEITTLVIPGHSSDPAMLERLAGFIAHDLGTGVPWHIIPFYPEISWKMQDTPPTPAESIEQAFEIGRKAGLSFIYAGNAHSDTFCDQCSARLVGRKASPFGDYRIERFDTGGRCPVCHAPSPMRD,not soluble
12,MSNDETVEKVTQQVSELKSTDVKEQVVTPWDVEGGVDEQGRAQNIDYDKLIKQFGTKPVNEETLKRFKQVTGREPHHFLRKGLFFSERDFTKILDLYEQGKPFFLYTGRGPSSDSMHLGHMIPFVFTKWLQEVFDVPLVIELTDDEKFLFKHKLTINDVKNFARENAKDIIAVGFDPKNTFIFSDLQYMGGAFYETVVRVSRQITGSTAKAVFGFNDSDCIGKFHFASIQIATAFPSSFPNVLGLPDKTPCLIPCAIDQDPYFRVCRDVADKLKYSKPALLHSRFFPALQGSTTKMSASDDTTAIFMTDTPKQIQKKINKYAFSGGQVSADLHRELGGNPDVDVAYQYLSFFKDDDVFLKECYDKYKSGELLSGEMKKLCIETLQEFVKAFQERRAQVDEETLDKFMVPHKLVWGEKERLVAPKPKTKQEKKHHHHHH,soluble
13,MKHWFNIALAALALSSATVQAATEVKVGMSGRYFPFTFVKQDELQGFEVDVWNEIGKRNDYKVEFVTANFSGLLGLLETGRIDTISNQITITDARKAKYLFSDPYVIDGAQITVRKGNEAIKGIDDLAGKTVAVNLGSNFEQLLRNHDKDGKINIKTYDTGIEHDVALGRADAFVMDRLSALELIEKTGLPLQLAGSPFETIENAWPFVNNEKGQQLQGEVNKALAAMRADGTLSQIALKWFGTDISQ,not soluble
14,MITFKPTRNIDLIEAVGNHPDIIAGSNNGDGYDYKPECRYFEVNVHGQFGGIVYYQEIQPLTLDCHAMYLPEIRGFSKEIGLAFWRYILTNTTVQCVTSFAARKFRHGQMYCAMIGLKRVGTIKKYFKGVDDVTFYSATREELIDFLNHGR,not soluble
15,SMCEKVISVGQTVITKHRNTRYYSCRVMAVTSQTFYEVMFDDGSFSRDTFPEDIVSRDCLKLGPPAEGEVVQVKWPDGKLYGAKYFGSNIAHMYQVEFEDGSQIAMKREDIYTLDEELPKRVK,soluble
16,MASLPTANPDLVVSDAKKPKWSWRAIKSFAMGELEARKLKYPNTGTEALLMGILIEGTSFTSKFLRANKIMLYKVREETVKLLGKADMYFFSPEHPPLTEDAQRALDSALDQNLKAGGIGEVMPAHILLGIWSEVESPGHKILATLGFTDEKSKELESFASESGFLDELEHHHHHH,soluble
17,MGSDKIHHHHHHMTQPPQSLQIKLANPRGFCAGVDRAISIVERALELFSPPIYVRHEVVHNRYVVQNLKDRGAVFVDELDQVPDDSIVIFSAHGVSQAVRAEAKKRGLRVFDATCPLVTKVHLQVTRASRKGIECILIGHAGHPEVEGTMGQYDNPEGGVLLVESPADVEALVVKDPDNLCFVTQTTLSMDDTADVIAALQKRFPSIQGPRKDDICYATQNRQDAVRNVADDVDLFIVVGSKNSSNSNRLMELAIKKGTQSYLVDNADDIKPEWFNDIEKVAVTAGASAPEVLVQQVIDAIAKLAPSVITEVEGRKEDTVFAVPAELR,not soluble
18,MSLNRIFDAHCHIIDPQFPLIANNGYLPDPFGVGDYLATVQPLGVQGGAVVSGSFQGFDQGYLLQALRLLGPGFVGVTQLPASVTDTELDTLNAAGVRALRFNLKRGGSEQLDQLEALAVRVRERAGWHSELYIDSRELAEIETRLLKLPAISIDHLGLSAEGLPVVLRLAERGVRVKACGFGRVDFPVREALRDIHAANPNALMFGTDLPSTRAPRPFQPDDIELLIDALGEGGARQALWDNAAEFYREGHHHHHH,not soluble
19,MSLRKTQTYKSLPYNPALRDRAKALRKAGILHEALLWFELKSNKLNGLDFDRQKIIGNYIVDFYCAERSVVIEVDGSSHDSKQIEDRERDAYLNGLGLTVIRVLAKDVLRNLEGVVEFLKDHPALTGTPPEEGNKTALTGTPPEEGNKTALTGTPPEEGNKTALTGTPPEEGNKTALTGTPPEEGNKTTLTEAREEGHHHHHH,soluble
20,MGSDKIHHHHHHMTTPANAVDTALITRRSIRAFLPTPVPRADIEAILEAASRAPSGTNTQPWKVYVVTGESLARLSRALLAAYDDPQRDALYQEEYPYYPHQWVSPYIDRRRKIGWDLYGLLGITKGDKARMHEQHAQNYRFFGAPVGLFFTIDRVMERGSWLDYGMFLQAIMTAARGRGLDTCPQAAFTQFHRVIAEHLGLPPEEQLVCGMSLGFADEDALVNTLRTEREPVERFTRFLD,not soluble
